Source: US20030079244A1, “Agent for treatment of exocrine gland disorders and transgenic mouse useful for screening the same” (R-TECH UENO, LTD., priority 1997, published 2003)

Tests used:
[1] = tested on: salivary gland epithelial cells; experiment: Cytotoxicity test against salivary gland epithelial cells (51Cr release); type: cell-based; conditions: CD4-positive T-cell effector cells treated with mouse IL-10 (0.1 mg/ml) with or without anti-FASL antibody (10 μg/ml); effector:target 20-fold; 4 hours at 37° C.; 51Cr in supernatant
Excerpt: Cytotoxicity test against salivary gland epithelial cells
Spleen isolated from a B6 mouse was chopped into small pieces, the cells were collected with a syringe having 22-gage injection needle and the collected cells were passed through a meshed screen to obtain cell suspension. CD4-positive T-cells were isolated from the cell suspension by means of dynabeads to provide effector cells.
Salivary gland of the same mouse as above was immersed in DMEM medium containing 10% fetal calf serum supplemented with collagenase (750 units/ml), EDTA (0.76 mg/ml) and hyaluronidase type IV (500 units/ml) to isolate the salivary gland tissue, and the obtained cells were incubated in DMEM medium containing 10% fetal calf serum for 10 to 14 days in a CO2 incubator. The cultured cells were then analyzed with flow-cytometry and were confirmed that 85-95% of them were epithelial cells, and were used as target cells.
The target cells were labeled with 51Cr. Half of the effector cells were treated with mouse IL-10 (0.1 mg/ml) alone, whereas the other half were treated with mice IL-10 (0.1 mg/ml) and anti mice Fas ligand (FASL) neutralizing antibody (10 μg/ml) . […]
The amount of 51Cr in the supernatant of the respective culture was measured and the cytotoxic ratio was calculated by subtracting the 51Cr amount of the target cells cultured without effector cells.

[2] = tested on: normal mouse spleen cells; experiment: Effect of IL-10 on the expression of Fas ligand (flow-cytometry); type: cell-based; conditions: treated in vitro, analyzed 48 hours after the treatment; versus non-stimulated cells
Procedure: In order to study the role of IL-10 in Fas-ligand expression, normal mouse spleen cells were isolated, treated with mouse recombinant IL-10 in vitro and then analyzed with flow-cytometry 48 hours after the treatment.

B1: IL-10: mouse interleukin-10 used to treat effector cells and spleen cells (protein, UniProt P18893 19-178, looked up)
Interleukin-10: SRGQYSREDNNCTHFPVGQSHMLLELRTAFSQVKTFFQTKDQLDNILLTDSLMQDFKGYLGCQALSEMIQFYLVEVMPQAEKHGPEIKEHLNSLGEKLKTLRMRLRRCHRFLPCENKSKAVEQVKSDFNKLQDQGVYKAMNEFDIFINCIEAYMMIKMKS
**Q.** How did the cytotoxic ratio [1] turn out when B1 was run?
**A.** 29.5%

**Q.** And the Fas ligand expression [2]?
**A.** Significantly higher amount of Fas ligand expression
